Here are results for two molecules from patent US20250145722A1, “ANTI-GAL3 ANTIBODIES AND METHODS OF USE” (TrueBinding, Inc., priority 2020, published 2025).

The target of assay [1] is T1, interaction of Gal3 and APP695 (Homo sapiens, UniProt P17931).
T1 construct: purchased R&D Systems; QCB200349; QCB200352; host or cells: mammalian (R&D 8259-GA) or E. coli (QCB200349)
Put plainly: Gal3-APP695 blocking ELISA. The format is binding. The protocol:
To identify Gal3-targeted antibodies with the ability to block the interaction of Gal3 and APP695, purified Gal3 and APP695 proteins were incubated in the presence (or absence) of various Gal3-targeted or control antibodies, or without antibody, and protein interaction was evaluated by ELISA.
Human GAL3 (mammalian, R&D Systems, 8259-GA; E-coli derived, untagged, TrueBinding, QCB200349; or His-tagged, TrueBinding, QCB200352) was diluted in PBS (Corning, 21-030-CM) to a concentration of 4 μg/mL and added to the wells of a 96-well ELISA plate (Thermo Fisher, 44-2404-21). After incubating the plate at 4° C. overnight, the plate was washed three times with PBST (PBS with 0.05% Tween 20 [VWR, 0777]) and then blocked for an hour with 2% BSA (EMD Millipore, 126609) in PBST at room temperature with gentle rocking. Human APP695 (R&D Systems, 9937-AP) was biotinylated with EZ Link Sulfo-NHS-LC-Biotin (ThermoFisher Scientific, A39257) and desalted using a Zeba Spin Desalting Column (ThermoFisher Scientific, 89882), following the manufacturer's instructions. […] The reaction was stopped with 1M HCl (JT Baker, 5620-02) and read using a plate reader (Molecular Devices) at absorbance of 450 nm. Percent blockade of Gal3-APP695 interaction was calculated as the fraction of signal obtained in the absence of antibody with the background signal subtracted.
For orientation: In an ELISA, binding on a coated surface is turned into a signal by an enzyme label.

Assay [2] has as its target T2, human Gal3 (Homo sapiens, UniProt P17931).
T2 construct: purchased AcroBio (Acro Biosystems) GA3-H5129
Kind of assay: Epitope binning assay, sandwich format, SPR-based Carterra LSA. The following applies: competitive binding for hGAL3. The protocol: First, the purified antibodies were diluted to 10 μg/ml concentration in 10 mM NaOAc (pH 5.0) and then were covalently coupled via amine group to HC200M chip activated by EDC and S-NHS to immobilize antibodies to different positions of a 384-spot array. One hundred thirty-eight binning cycles were run on the array of immobilized antibodies. In each cycle, first, human Gal3 (AcroBio GA3-H5129) was injected over the entire array to bind to different antibodies (primary antibody), followed by one antibody (secondary antibody) selected among the panel of 150 anti-GAL3 antibodies tested. At the end of each cycle, the array was regenerated by 10 mM Glycine (pH 2.0) to remove bound antigen and secondary antibody from the array. The data analysis was done using the Epitope software by CarterraBio.

T2 sequence (P17931 whole entry): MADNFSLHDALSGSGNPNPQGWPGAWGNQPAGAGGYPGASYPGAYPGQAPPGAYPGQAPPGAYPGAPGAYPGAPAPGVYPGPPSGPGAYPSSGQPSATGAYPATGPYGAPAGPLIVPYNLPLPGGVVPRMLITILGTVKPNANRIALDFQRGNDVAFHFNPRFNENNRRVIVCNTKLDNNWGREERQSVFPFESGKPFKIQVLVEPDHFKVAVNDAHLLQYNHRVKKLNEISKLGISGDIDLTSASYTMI
T1 sequence (P17931 2-250 limits assumed): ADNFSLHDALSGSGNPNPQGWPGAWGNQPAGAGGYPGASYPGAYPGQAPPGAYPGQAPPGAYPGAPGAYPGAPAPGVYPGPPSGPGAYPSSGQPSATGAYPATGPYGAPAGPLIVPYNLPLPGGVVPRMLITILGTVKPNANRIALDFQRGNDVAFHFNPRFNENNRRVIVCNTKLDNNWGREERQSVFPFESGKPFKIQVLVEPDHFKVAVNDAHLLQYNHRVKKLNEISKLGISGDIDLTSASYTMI

B1: F849C.8D12: anti-Gal3 antibody (antibody, V domains shown)
VH: EVQLQQSGPELVKPGSSVKISCKASRYTFTDYNMDWVKQSHGKRLEWIGYIYPNNGGTGYNQKFKGKATLTVDKSSSTAYMELRSLTSEDSAVYYCARSYYDGSYDAMDYWGQGTSVTVSS
VL: DIQMTQTTSSLSASLGDRVTISCSASQGISNYLNWYQQKPDGTVKLLIYYTSSLHSGVPSRFSGSGSGTDYSLTISNLEPEDIATYYCQQYSKLPRTFGGGTKLEI
modifications: misc_feature 1..363 849.8D12 VH nucleic acid; misc_feature 1..318 849.8D12 VL nucleic acid
notes: anti-Gal3 antibody
For the molecule B1, the “Blocking of Gal3-APP695 binding (in words)” value in assay [1] is “did not impact”.

B2: 846.2B11: anti-Gal3 antibody (antibody, V domains shown)
VH: QVQLQQSGPELVRPGALVKISCKASGYTFTSYDINWVKQRPGQGLEWIGWIYPGDGSTKYNEKFKGKATLTADKSSSTAYMQLSSLTSENSAVYFCAREAASNAMDYWGQGTSVTVSS
VL: DIVLTQSPASLGVSLGQRATISCRASKSVSTSGYSYMHWYQQKPGQPPKLLIYLASILESGVPARFSGSGSGTDFTLNIHPVEEEDAAIYYCQHSRELPLTFGAGTKLELK
modifications: misc_feature 1..354 846.2B11 VH nucleic acid; misc_feature 1..333 846.2B11 VL nucleic acid
notes: anti-Gal3 antibody
Take B2: the Epitope bin entry in assay [2] is “bin 16”.
